In paper doi:10.1101/2024.02.24.581832:

Biological target: N-terminal domain of MtbClpC1 (residues 1-145) (Mycobacterium tuberculosis) (UniProt P9WPC9)
Assay: differential scanning fluorimetry

UniProt P9WPC9, sequence (P9WPC9 1-145): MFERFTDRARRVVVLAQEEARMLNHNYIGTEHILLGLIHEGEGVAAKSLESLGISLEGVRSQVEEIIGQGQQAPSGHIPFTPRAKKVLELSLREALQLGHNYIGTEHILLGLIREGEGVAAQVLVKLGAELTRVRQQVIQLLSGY

Work on ilamycin E (peptide) yielded a ΔTm of 3 °C.
ilamycin F (peptide) gave a ΔTm of 1 °C.
